Results on 72 molecules are retold here after US20250011363A1, “OPTIMIZED SHORTENED PEPTIDE THAT BINDS TO ACETYLCHOLINE RECEPTOR, AND USE THEREOF” (SKINMED CO., LTD., priority 2021, published 2025).

Experiment [1] deals with acetylcholine receptor. Briefly: SPR, peptide at 10 uM. On the technique in general: SPR reads the build-up and loss of mass on a sensor chip optically.
Experiment [2] addresses acetylcholine receptor. Kind of experiment: SPR, peptide at 10 uM on acetylcholine receptor.

B1: 6mer-2-1165 (peptide)
peptide: RIKAKK
Regarding B1, the Binding affinity in the experiment with acetylcholine receptor [1] stood at 30 RU.

B2: 6mer-2-1177 (peptide)
peptide: RASEKR
With B2, the Binding affinity in the experiment with acetylcholine receptor [1] was 41 RU.

B3: 6mer-2-1173 (peptide)
peptide: KCCNKK
On to B3, for which, in the experiment with acetylcholine receptor [1], the Binding affinity stood at 38 RU.

B4: 5mer-655 (peptide)
peptide: RKCIR
As for B4, the Binding affinity (RU) with acetylcholine receptor [2] was 15 RU.

B5: 5mer-661 (peptide)
peptide: RCNMK
For the molecule B5, the Binding affinity (RU) with acetylcholine receptor [2] came to 30 RU.

B6: 6mer-2-1167 (peptide)
peptide: RCAPKR
Turning to B6, the Binding affinity with acetylcholine receptor [1] amounted to 27 RU.

B7: 5mer-657 (peptide)
peptide: KDNDR
As for B7, the Binding affinity (RU) with acetylcholine receptor [2] was 22 RU.

B8: 6mer-2-1178 (peptide)
peptide: KTTVRK
In turn, B8 returned a Binding affinity with acetylcholine receptor [1] of 30 RU.

B9: 5mer-663 (peptide)
peptide: RATPR
As to B9, in the experiment with acetylcholine receptor [2], the Binding affinity (RU) is 31 RU.

B10: 6mer-2-1196 (peptide)
peptide: RESKKR
With B10, the Binding affinity with acetylcholine receptor [1] worked out at 39 RU.

B11: 6mer-2-1157 (peptide)
peptide: RNTDRK
In the case of B11, the Binding affinity with acetylcholine receptor [1] was found to be 37 RU.

B12: 5mer-957 (peptide)
peptide: RDCER
In the experiment with acetylcholine receptor [2], B12 came in with a Binding affinity (RU) of 30 RU.

B13: 5mer-658 (peptide)
peptide: KKWGR
The molecule B13 had a Binding affinity (RU) with acetylcholine receptor [2] of 31 RU.

B14: 6mer-2-1174 (peptide)
peptide: RCEPRK
B14 gave a Binding affinity with acetylcholine receptor [1] of 21 RU.

B15: 6mer-2-1188 (peptide)
peptide: RAPARR
On to B15, for which the Binding affinity with acetylcholine receptor [1] worked out at 22 RU.

B16: 5mer-961 (peptide)
peptide: KIANR
Regarding B16, in the experiment with acetylcholine receptor [2], the Binding affinity (RU) is 32 RU.

B17: 5mer-959 (peptide)
peptide: KPNMK
In the case of B17, the Binding affinity (RU) in the experiment with acetylcholine receptor [2] amounted to 29 RU.

B18: 6mer-2-1184 (peptide)
peptide: KFWVRR
In the experiment with acetylcholine receptor [1], B18 had a Binding affinity of 22 RU.

B19: 6mer-2-1162 (peptide)
peptide: KMSERR
In the case of B19, the Binding affinity with acetylcholine receptor [1] was 34 RU.

B20: 6mer-2-1195 (peptide)
peptide: KMTERK
With B20, the Binding affinity with acetylcholine receptor [1] was 25 RU.

B21: 6mer-2-1182 (peptide)
peptide: RHNDKR
In the experiment with acetylcholine receptor [1], B21 had a Binding affinity of 30 RU.

B22: 6mer-2-1183 (peptide)
peptide: RENNRK
In turn, B22 displayed a Binding affinity in the experiment with acetylcholine receptor [1] of 35 RU.

B23: 5mer-654 (peptide)
peptide: KEWNR
In the case of B23, the Binding affinity (RU) with acetylcholine receptor [2] worked out at 27 RU.

B24: 5mer-650 (peptide)
peptide: RPEDK
In turn, B24 returned a Binding affinity (RU) with acetylcholine receptor [2] of 22 RU.

B25: 6mer-2-1190 (peptide)
peptide: KACIRR
B25: the Binding affinity in the experiment with acetylcholine receptor [1] was determined as 32 RU.

B26: 6mer-2-1189 (peptide)
peptide: KTAPKK
As to B26, the Binding affinity with acetylcholine receptor [1] amounted to 40 RU.

B27: 6mer-2-1179 (peptide)
peptide: KACVKK
Turning to B27, the Binding affinity with acetylcholine receptor [1] stood at 34 RU.

B28: 5mer-951 (peptide)
peptide: RYMGR
The molecule B28 gave a Binding affinity (RU) with acetylcholine receptor [2] of 18 RU.

B29: 5mer-955 (peptide)
peptide: KNADK
Regarding B29, in the experiment with acetylcholine receptor [2], the Binding affinity (RU) came out at 14 RU.

B30: 5mer-956 (peptide)
peptide: KPTWK
In the experiment with acetylcholine receptor [2], B30 had a Binding affinity (RU) of 19 RU.

B31: 5mer-952 (peptide)
peptide: KTMHK
In turn, B31 registered a Binding affinity (RU) with acetylcholine receptor [2] of 12 RU.

B32: 6mer-2-1197 (peptide)
peptide: KNCIKK
Consider B32, for which the Binding affinity with acetylcholine receptor [1] came out at 23 RU.

B33: 6mer-2-1158 (peptide)
peptide: RDNIRK
B33: the Binding affinity in the experiment with acetylcholine receptor [1] is 37 RU.

B34: 6mer-2-1198 (peptide)
peptide: RMSHRR
For B34, the Binding affinity in the experiment with acetylcholine receptor [1] was 27 RU.

B35: 6mer-2-1170 (peptide)
peptide: KFTIRR
Molecule B35 came in with a Binding affinity with acetylcholine receptor [1] of 25 RU.

B36: 5mer-659 (peptide)
peptide: KIHEK
Molecule B36 displayed a Binding affinity (RU) in the experiment with acetylcholine receptor [2] of 22 RU.

B37: 5mer-950 (peptide)
peptide: KDADR
Molecule B37 registered a Binding affinity (RU) with acetylcholine receptor [2] of 22 RU.

B38: 6mer-2-1192 (peptide)
peptide: KHKNKR
B38: in the experiment with acetylcholine receptor [1], the Binding affinity was determined as 40 RU.

B39: 5mer-960 (peptide)
peptide: RNPGK
Regarding B39, the Binding affinity (RU) with acetylcholine receptor [2] came to 14 RU.

B40: 5mer-954 (peptide)
peptide: KTEVK
As to B40, the Binding affinity (RU) with acetylcholine receptor [2] was 23 RU.

B41: 6mer-2-1163 (peptide)
peptide: KCHFKK
B41 displayed a Binding affinity with acetylcholine receptor [1] of 37 RU.

B42: 6mer-2-1160 (peptide)
peptide: RITVKK
The molecule B42 registered a Binding affinity in the experiment with acetylcholine receptor [1] of 23 RU.

B43: 5mer-656 (peptide)
peptide: KATGR
B43 yielded a Binding affinity (RU) with acetylcholine receptor [2] of 13 RU.

B44: 5mer-660 (peptide)
peptide: KFDVK
The molecule B44 gave a Binding affinity (RU) with acetylcholine receptor [2] of 11 RU.

B45: 6mer-2-1191 (peptide)
peptide: KKADRK
On to B45, for which the Binding affinity with acetylcholine receptor [1] was found to be 35 RU.

B46: 6mer-2-1175 (peptide)
peptide: RYSKRR
Molecule B46 gave a Binding affinity in the experiment with acetylcholine receptor [1] of 34 RU.

B47: 6mer-2-1169 (peptide)
peptide: KICERK
Consider B47, for which the Binding affinity in the experiment with acetylcholine receptor [1] came out at 21 RU.

B48: 6mer-2-1164 (peptide)
peptide: RYNHKR
In the experiment with acetylcholine receptor [1], B48 gave a Binding affinity of 33 RU.

B49: 5mer-953 (peptide)
peptide: RKMAR
In the case of B49, the Binding affinity (RU) in the experiment with acetylcholine receptor [2] worked out at 23 RU.

B50: 6mer-2-1161 (peptide)
peptide: RHSFKK
Consider B50, for which the Binding affinity with acetylcholine receptor [1] was found to be 27 RU.

B51: 5mer-652 (peptide)
peptide: RCAAR
As to B51, the Binding affinity (RU) with acetylcholine receptor [2] worked out at 23 RU.

B52: 6mer-2-1185 (peptide)
peptide: RIDAKK
The molecule B52 registered a Binding affinity with acetylcholine receptor [1] of 42 RU.

B53: 6mer-2-1193 (peptide)
peptide: REKIRR
B53 displayed a Binding affinity in the experiment with acetylcholine receptor [1] of 43 RU.

B54: 6mer-2-1180 (peptide)
peptide: RAANRR
B54: in the experiment with acetylcholine receptor [1], the Binding affinity was 34 RU.

B55: 6mer-2-1187 (peptide)
peptide: RTADRK
In the experiment with acetylcholine receptor [1], B55 gave a Binding affinity of 36 RU.

B56: 6mer-2-1171 (peptide)
peptide: KMPARR
In turn, B56 displayed a Binding affinity with acetylcholine receptor [1] of 40 RU.

B57: 5mer-649 (peptide)
peptide: RYSFK
B57 displayed a Binding affinity (RU) in the experiment with acetylcholine receptor [2] of 20 RU.

B58: 5mer-651 (peptide)
peptide: RFTVR
The molecule B58 had a Binding affinity (RU) with acetylcholine receptor [2] of 11 RU.

B59: 5mer-662 (peptide)
peptide: KIEEK
B59 returned a Binding affinity (RU) in the experiment with acetylcholine receptor [2] of 28 RU.

B60: 5mer-949 (peptide)
peptide: KMKMK
As for B60, the Binding affinity (RU) with acetylcholine receptor [2] amounted to 26 RU.

B61: 5mer-958 (peptide)
peptide: RKWKR
Molecule B61 gave a Binding affinity (RU) with acetylcholine receptor [2] of 11 RU.

B62: 5mer-653 (peptide)
peptide: KTTWK
Molecule B62 displayed a Binding affinity (RU) with acetylcholine receptor [2] of 16 RU.

B63: 6mer-2-1166 (peptide)
peptide: KCSIKK
Turning to B63, the Binding affinity with acetylcholine receptor [1] amounted to 26 RU.

B64: 6mer-2-1194 (peptide)
peptide: KYCDRK
The molecule B64 had a Binding affinity in the experiment with acetylcholine receptor [1] of 35 RU.

B65: 6mer-2-1186 (peptide)
peptide: KEKFRR
In the experiment with acetylcholine receptor [1], B65 returned a Binding affinity of 27 RU.

B66: 5mer-962 (peptide)
peptide: RIWKR
In the case of B66, the Binding affinity (RU) with acetylcholine receptor [2] was 23 RU.

B67: 6mer-2-1181 (peptide)
peptide: KACWKR
In turn, B67 yielded a Binding affinity with acetylcholine receptor [1] of 32 RU.

B68: 6mer-2-1176 (peptide)
peptide: RYTEKK
B68: the Binding affinity with acetylcholine receptor [1] worked out at 43 RU.

B69: 6mer-2-1168 (peptide)
peptide: KMKPKK
Regarding B69, in the experiment with acetylcholine receptor [1], the Binding affinity is 41 RU.

B70: 6mer-2-1159 (peptide)
peptide: KDMGKR
As to B70, the Binding affinity with acetylcholine receptor [1] came out at 40 RU.

B71: 6mer-2-1172 (peptide)
peptide: KNCERR
In the experiment with acetylcholine receptor [1], B71 displayed a Binding affinity of 36 RU.

B72: 6mer-2-1156 (peptide)
peptide: KMNARR
With B72, the Binding affinity with acetylcholine receptor [1] was 35 RU.
